Test results taken from doi:10.1101/2023.05.23.541938.

Target: TgPKS2 thioester reductase domain (TgTR) (Toxoplasma gondii)
Assay: ITC

Question: For holo-TgACP4 (domain or fragment), which Kd is on record?
Answer: 5.75 µM
